Tests used:
Experiment in all cases: pull-down
[1] = biological target: ELL2-F, affinity-purified (UniProt O00472 1-640)
[2] = biological target: T1, F-AFF4(Δ301–400), affinity-purified (UniProt Q9UHB7 1-1163, Δ301–400)
T1 sequence (looked up): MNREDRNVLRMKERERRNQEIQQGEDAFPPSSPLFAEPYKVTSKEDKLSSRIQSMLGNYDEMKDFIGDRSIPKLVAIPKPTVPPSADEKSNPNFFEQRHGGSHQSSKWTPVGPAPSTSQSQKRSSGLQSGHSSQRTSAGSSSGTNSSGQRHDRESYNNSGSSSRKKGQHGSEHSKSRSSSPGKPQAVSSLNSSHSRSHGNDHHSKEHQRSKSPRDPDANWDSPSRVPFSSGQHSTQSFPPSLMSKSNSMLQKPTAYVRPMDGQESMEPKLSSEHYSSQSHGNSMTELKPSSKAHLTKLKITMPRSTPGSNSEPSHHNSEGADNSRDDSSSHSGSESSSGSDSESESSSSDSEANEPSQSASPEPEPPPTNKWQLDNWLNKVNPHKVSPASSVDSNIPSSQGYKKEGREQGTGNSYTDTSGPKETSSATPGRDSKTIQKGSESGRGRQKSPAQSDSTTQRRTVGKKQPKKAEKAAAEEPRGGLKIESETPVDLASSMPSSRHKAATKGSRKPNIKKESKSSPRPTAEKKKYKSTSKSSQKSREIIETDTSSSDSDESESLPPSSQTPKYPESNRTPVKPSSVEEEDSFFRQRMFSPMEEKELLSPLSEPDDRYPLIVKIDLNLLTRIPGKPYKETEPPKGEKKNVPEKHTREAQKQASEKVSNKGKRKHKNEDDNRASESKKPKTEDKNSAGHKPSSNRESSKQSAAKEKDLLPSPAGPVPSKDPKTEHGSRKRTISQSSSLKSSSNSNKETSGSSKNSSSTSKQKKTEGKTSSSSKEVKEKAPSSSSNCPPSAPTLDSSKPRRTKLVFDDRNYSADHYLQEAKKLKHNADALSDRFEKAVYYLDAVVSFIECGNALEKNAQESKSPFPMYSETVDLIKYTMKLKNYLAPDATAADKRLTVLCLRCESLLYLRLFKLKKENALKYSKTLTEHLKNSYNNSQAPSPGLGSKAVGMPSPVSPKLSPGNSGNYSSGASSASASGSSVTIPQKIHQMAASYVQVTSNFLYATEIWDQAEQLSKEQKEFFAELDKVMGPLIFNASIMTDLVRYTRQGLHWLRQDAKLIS

[3] = biological target: T2, F-AFF4, wild type, affinity-purified (UniProt Q9UHB7 1-1163)
T2 sequence (looked up): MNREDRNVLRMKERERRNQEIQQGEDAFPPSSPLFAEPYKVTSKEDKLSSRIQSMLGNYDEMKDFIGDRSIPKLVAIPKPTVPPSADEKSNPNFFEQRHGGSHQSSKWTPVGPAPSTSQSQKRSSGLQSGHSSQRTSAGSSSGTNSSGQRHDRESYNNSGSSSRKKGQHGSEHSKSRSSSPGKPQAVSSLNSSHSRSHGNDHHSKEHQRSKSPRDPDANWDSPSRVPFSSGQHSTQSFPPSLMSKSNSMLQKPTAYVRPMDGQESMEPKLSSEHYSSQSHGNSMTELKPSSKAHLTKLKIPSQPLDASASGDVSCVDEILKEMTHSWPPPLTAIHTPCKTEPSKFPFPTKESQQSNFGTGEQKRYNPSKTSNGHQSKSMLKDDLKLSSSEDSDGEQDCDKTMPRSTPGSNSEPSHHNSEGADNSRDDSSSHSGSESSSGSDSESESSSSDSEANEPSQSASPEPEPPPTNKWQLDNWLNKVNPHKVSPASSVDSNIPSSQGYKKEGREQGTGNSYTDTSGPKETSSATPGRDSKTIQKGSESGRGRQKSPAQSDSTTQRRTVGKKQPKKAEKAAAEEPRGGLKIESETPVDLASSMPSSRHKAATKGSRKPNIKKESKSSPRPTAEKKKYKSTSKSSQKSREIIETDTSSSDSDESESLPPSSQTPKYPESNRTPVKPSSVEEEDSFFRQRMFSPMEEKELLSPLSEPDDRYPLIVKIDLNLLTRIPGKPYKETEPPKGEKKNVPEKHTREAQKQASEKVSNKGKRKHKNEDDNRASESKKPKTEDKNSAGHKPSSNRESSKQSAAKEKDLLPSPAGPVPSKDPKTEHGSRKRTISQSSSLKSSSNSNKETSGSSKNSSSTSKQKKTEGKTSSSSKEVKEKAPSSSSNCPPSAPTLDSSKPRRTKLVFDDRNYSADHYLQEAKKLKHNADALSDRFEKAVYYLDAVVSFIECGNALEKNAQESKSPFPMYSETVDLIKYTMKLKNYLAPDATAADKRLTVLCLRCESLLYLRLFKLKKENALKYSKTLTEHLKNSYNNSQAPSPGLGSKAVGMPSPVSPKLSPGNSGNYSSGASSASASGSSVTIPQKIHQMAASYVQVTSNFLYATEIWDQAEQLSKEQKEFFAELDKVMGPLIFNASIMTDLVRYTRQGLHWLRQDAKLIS

Measured: binding result

Sequence of ELL2-F, affinity-purified (O00472 whole entry): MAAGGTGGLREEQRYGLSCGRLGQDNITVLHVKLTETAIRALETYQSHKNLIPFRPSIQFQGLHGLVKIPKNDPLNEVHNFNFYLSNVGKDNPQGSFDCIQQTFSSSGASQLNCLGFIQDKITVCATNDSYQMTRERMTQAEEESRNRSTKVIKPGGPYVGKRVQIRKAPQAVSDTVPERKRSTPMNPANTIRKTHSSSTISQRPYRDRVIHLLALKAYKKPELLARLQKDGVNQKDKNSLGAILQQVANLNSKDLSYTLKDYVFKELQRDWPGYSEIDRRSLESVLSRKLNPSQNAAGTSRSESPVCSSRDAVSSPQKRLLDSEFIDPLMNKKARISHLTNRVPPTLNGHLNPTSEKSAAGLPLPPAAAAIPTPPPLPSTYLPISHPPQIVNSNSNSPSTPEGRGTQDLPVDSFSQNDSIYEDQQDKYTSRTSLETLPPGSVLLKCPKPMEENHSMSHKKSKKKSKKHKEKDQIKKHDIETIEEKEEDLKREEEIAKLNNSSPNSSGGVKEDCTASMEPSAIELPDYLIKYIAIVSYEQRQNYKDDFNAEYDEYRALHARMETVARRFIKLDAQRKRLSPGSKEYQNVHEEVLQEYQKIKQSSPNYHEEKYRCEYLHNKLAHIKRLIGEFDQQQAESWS

B1: HA-Siah1 immobilized on anti-HA beads (enzyme, human, UniProt Q8IUQ4-2 1-313, looked up)
chain: MTGKATPPSLYSWRGVLFTCLPAARTRKRKEMSRQTATALPTGTSKCPPSQRVPALTGTTASNNDLASLFECPVCFDYVLPPILQCQSGHLVCSNCRPKLTCCPTCRGPLGSIRNLAMEKVANSVLFPCKYASSGCEITLPHTEKADHEELCEFRPYSCPCPGASCKWQGSLDAVMPHLMHQHKSITTLQGEDIVFLATDINLPGAVDWVMMQSCFGFHFMLVLEKQEKYDGHQQFFAIVQLIGTRKQAENFAYRLELNGHRRRLTWEATPRSIHEGIATAIMNSDCLVFDTSIAQLFAENGNLGINVTISMC
binds: all assays above
